Measured values as given in patent US7514408 (ELAN PHARMACEUTICALS, dated 2009).
Numbered stars: 1 amine (or outer) side, 2 acyl side, 3 side chain; on linkers, the order of the positions; unused ones are H or OH. Square brackets hold non-standard residues; d marks the D form. Ends that are not written are not given here. Ahppa(3S,4S) = O=C(C[C@H](O)[C@H](Cc1ccccc1)N[*:1])[*:2]; ACHPA = O=C(C[C@H](O)[C@H](CC1CCCCC1)N[*:1])[*:2]; Sta = CC(C)C[C@H](N)[C@@H](O)CC(=O)O; Phg = N[C@H](C(=O)O)c1ccccc1; Nle = CCCC[C@H](N)C(=O)O; norSta = nor-statine

The binders below were run against T1, β-secretase (enzyme preparation not stated for the inhibitor assays) (human, UniProt P56817 46-501, limits assumed) (assay: cell-based or functional assay).
T1 sequence (P56817 46-501 limits assumed): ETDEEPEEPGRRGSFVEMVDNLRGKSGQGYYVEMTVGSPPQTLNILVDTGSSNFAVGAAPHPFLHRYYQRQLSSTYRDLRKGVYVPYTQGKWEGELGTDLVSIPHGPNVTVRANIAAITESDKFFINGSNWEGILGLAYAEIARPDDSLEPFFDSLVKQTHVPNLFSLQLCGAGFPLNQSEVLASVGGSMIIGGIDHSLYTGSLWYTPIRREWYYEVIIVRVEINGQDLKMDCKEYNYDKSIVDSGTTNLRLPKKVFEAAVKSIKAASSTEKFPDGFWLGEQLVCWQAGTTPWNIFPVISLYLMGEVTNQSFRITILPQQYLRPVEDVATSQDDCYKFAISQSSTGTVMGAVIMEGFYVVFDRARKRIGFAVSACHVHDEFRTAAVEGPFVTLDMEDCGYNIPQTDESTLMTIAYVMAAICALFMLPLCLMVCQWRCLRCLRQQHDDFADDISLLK

| inhibitor potency relative to the valine substitution alone [times] | Binder |
| --- | --- |
| ~100 | KTEEISEVN[Sta]VAEF [P10-P4′staD→V] |

Target: T1, β-secretase (enzyme preparation not …)
Assay: cell-based or functional assay
Remark: another data set of the same source

| IC50 Group, MBP C125 assay (Group II: =1<10 µM) [µM] | IC50 Group, MBP C125 assay (Group I: IC50 of <µm [sic]) [µM] | Binder |
| --- | --- | --- |
| < 10 | – | Ac-VF[Sta]VAEF [heptamer peptide 7J (Ac-Val-Phe-Sta-Val-Ala-Glu-Phe)] |
| < 10 | – | Ac-VM[norSta]VAEF [heptamer peptide 7P (Ac-Val-Met-norSta-Val-Ala-Glu-Phe)] |
| – | < 1 | Ac-V[Nle][Sta]VAEF [heptamer peptide 7H (Ac-Val-nLeu-Sta-Val-Ala-Glu-Phe)] |
| < 10 | – | Ac-VN[Sta]VAEF [heptamer peptide 7I (Ac-Val-Asn-Sta-Val-Ala-Glu-Phe)] |
| – | < 1 | Ac-VM[Ahppa(3S,4S)]VAEF [heptamer peptide 7O (Ac-Val-Met-pheSta-Val-Ala-Glu-Phe)] |
| < 10 | – | H-VM[ACHPA]VAEF [heptamer peptide 7Q ((NH2)Val-Met-acha-Val-Ala-Glu-Phe)] |
| – | < 1 | Ac-V[Phg][Sta]VAEF [heptamer peptide 7G (Ac-Val-Phg-Sta-Val-Ala-Glu-Phe)] |
| – | < 1 | Ac-VM[Sta]VAEF [heptamer peptide 7B (Ac-Val-Met-Sta-Val-Ala-Glu-Phe)] |
